In US20170267738A1 (IMMATICS BIOTECHNOLOGIES, published 2017):

B1: TCR R20P1H7 (TCR, V domains shown)
V domain 1: EDQVTQSPEALRLQEGESSSLNCSYTVSGLRGLFWYRQDPGKGPEFLFTLYSAGEEKEKERLKATLTKKESFLHITAPKPEDSATYLCAVQGENSGYSTLTFGKGTMLLVSP
V domain 2: EAQVTQNPRYLITVTGKKLTVTCSQNMNHEYMSWYRQDPGLGLRQIYYSMNVEVTDKGDVPEGYKVSRKEKRNFPLILESPSPNQTSLYFCASSLGPGLAAYNEQFFGPGTRLTVLE
B2: TCR R10P2G12 (TCR, V domains shown)
V domain 1: AQKVTQAQTEISVVEKEDVTLDCVYETRDTTYYLFWYKQPPSGELVFLIRRNSFDEQNEISGRYSWNFQKSTSSFNFTITASQVVDSAVYFCALSEGNSGNTPLVFGKGTRLSVIA
V domain 2: DVKVTQSSRYLVKRTGEKVFLECVQDMDHENMFWYRQDPGLGLRLIYFSYDVKMKEKGDIPEGYSVSREKKERFSLILESASTNQTSMYLCASSLSSGSHQETQYFGPGTRLLVLE

Target: MHC/MAG-003 complex on target cells (human)
Experiment: cell-based or functional assay

Binder | EC50 (target peptide titration, IFN-γ release)
B1 | ~10 nM
B2 | ~10 nM
